One series deals with T1, TGase 2 in cell lysates (Homo sapiens, UniProt P21980).
T1 construct: endogenous in cells; host or cells: lysates of 30 cell lines (27 human, 3 mouse), e.g. HUVEC, A375
T1 sequence (P21980 2-687 limits assumed): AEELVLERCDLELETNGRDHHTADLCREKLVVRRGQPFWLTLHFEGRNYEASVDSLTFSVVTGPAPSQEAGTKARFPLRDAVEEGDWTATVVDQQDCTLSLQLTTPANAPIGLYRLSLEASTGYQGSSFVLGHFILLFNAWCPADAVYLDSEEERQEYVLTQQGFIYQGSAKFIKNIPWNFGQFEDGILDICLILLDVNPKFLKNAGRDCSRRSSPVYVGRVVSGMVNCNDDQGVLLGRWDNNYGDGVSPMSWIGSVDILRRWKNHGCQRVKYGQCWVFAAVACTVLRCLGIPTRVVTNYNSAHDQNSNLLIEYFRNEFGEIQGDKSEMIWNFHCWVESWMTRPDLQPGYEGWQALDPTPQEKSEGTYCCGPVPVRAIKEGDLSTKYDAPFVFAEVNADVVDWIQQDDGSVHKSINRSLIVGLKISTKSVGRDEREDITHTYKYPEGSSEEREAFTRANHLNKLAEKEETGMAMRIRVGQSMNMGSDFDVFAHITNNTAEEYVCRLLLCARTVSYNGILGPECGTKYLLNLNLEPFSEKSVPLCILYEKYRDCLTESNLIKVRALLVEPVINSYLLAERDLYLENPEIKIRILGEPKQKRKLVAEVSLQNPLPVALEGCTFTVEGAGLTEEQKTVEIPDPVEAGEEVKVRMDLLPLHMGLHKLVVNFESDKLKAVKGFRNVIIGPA
Briefly: FA-based assay of TGase 2 activity in cell lysates, control with inhibitor. Type of series: biochemical, human and mouse. As to conditions: 10 µM inhibitor, preincubation 10 min; DMC 30 µM, R-I-Cad 0.81 µM; all studied cell lines. How it is done:
Lysis of cell pellets was performed as described recently. Accordingly, cell pellets were resuspended in 50 µL modified RIPA buffer A, incubated on ice for 30 min and applied to ultrasound (Bandelin Sonopuls, 2 × 15 s, 20% power at ambient temperature). Subsequently, cell lysates were incubated on ice for 10 min and were then spun for 15 min at 4 °C at 15,000× g. The supernatants were transferred into fresh tubes. The protein content was determined with a BCA protein assay (ThermoFisher, Waltham, MA, USA) according to the manufacturer’s protocol. Lysates were stored at −60 °C.

The next series deals with T2, hTGase 2 (Homo sapiens, UniProt P21980).
T2 sequence (P21980 1-687): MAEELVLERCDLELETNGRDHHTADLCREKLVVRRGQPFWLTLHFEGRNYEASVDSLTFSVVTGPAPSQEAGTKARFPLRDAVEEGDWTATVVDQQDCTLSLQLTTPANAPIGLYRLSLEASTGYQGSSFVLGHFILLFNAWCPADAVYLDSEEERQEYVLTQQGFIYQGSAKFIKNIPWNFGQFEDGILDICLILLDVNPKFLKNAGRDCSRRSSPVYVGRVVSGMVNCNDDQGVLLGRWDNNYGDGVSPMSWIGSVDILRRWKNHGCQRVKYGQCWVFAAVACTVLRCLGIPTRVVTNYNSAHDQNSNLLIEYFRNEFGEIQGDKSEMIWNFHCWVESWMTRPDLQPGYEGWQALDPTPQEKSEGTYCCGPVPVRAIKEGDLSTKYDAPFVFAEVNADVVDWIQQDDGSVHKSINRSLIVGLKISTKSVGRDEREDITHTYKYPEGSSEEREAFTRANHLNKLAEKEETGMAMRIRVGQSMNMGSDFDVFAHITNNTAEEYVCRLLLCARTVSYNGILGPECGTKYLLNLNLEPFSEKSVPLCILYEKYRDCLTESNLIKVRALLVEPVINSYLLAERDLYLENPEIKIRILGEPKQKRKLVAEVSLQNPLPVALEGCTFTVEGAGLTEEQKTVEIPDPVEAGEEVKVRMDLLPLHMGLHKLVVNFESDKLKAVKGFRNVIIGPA
On the set-up: purchased Zedira T022; method as in PMID 29664627. As to conditions: hTGase 2 5 µg/mL, R-I-Cad 0.74 µM, mean (SEM), cited from earlier work.

The target in another series is T3, hTGase 3 (Homo sapiens, UniProt Q08188).
T3 sequence (Q08188 2-467 limits assumed): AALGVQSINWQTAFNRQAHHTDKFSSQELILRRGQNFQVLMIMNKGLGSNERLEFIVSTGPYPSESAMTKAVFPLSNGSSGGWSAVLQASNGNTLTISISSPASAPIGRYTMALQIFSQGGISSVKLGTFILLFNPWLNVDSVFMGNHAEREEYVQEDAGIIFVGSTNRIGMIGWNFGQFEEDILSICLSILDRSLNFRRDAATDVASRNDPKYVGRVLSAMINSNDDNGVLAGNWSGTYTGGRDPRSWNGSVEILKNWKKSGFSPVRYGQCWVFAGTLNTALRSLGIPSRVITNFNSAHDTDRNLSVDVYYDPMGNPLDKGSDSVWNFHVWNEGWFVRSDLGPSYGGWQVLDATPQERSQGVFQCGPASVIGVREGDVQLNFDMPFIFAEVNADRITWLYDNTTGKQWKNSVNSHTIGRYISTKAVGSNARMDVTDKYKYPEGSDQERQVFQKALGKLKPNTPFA
T3 sequence (Q08188 468-693 partner limits assumed): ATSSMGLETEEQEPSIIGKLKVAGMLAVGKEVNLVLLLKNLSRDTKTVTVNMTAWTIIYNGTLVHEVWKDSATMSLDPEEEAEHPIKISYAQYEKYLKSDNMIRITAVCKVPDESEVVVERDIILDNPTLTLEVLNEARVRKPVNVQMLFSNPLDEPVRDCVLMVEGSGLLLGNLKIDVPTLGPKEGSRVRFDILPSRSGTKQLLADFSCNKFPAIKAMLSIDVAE
Briefly: FA-based assay, kinetic characterization of acyl donor DMC with R-I-Cad. Type of series: biochemical. On the set-up: purchased Zedira T013. As to conditions: hTGase 3 5 µg/mL, R-I-Cad 0.74 µM, mean (SEM). How it is done: For the kinetic characterization of DMC (Figure 1B) in the presence of a fixed concentration of R-I-Cad (0.74 µM), eight different concentrations of DMC (0.3–300 µM) were used (2–3 separate experiments, each performed in duplicate). The corresponding stock solutions of DMC and R-I-Cad were prepared in assay buffer A and DMSO, respectively. […] Values for Km, Ki and Vmax were calculated according to the equation of substrate inhibition (Equation (2)). (2) v=Vmax∗[S]/Km+[S]∗(1+[S]/Ki)

The mark [1] stands for this setting: read-out: Ki (substrate inhibition).

Broadly, the Km is the concentration of substrate that gives half-maximal velocity.

For the compound `C=CC(=O)NCCCC[C@H](NC(=O)Cc1ccccc1)C(=O)N1CCN(c2cccc(C)n2)CC1` [Compound 1], the “FA increase over time in cell lysates in the presence of inhibitor” value at TGase 2 in cell lysates is given as “below the detection limit”.

As for N,N-dimethylated casein [DMC], the Km with hTGase 2 is 2.78 µM; in the series with hTGase 3 it was 6.29 µM. Further, the values for the Ki on hTGase 2 (setting [1]) and on hTGase 3 (setting [1]) were 174 µM and 571 µM, respectively. Besides, the Vmax with hTGase 2 (pH 8.0, 30 °C) is given as 26.4 (2.8) mA mL s^−1 mg^−1; with hTGase 3 (pH 8.0, 30 °C), 5.80 (0.09) mA mL s^−1 mg^−1.

Values taken from PMC9104438, “Application of a Fluorescence Anisotropy-Based Assay to Quantify Transglutaminase 2 Activity in Cell Lysates” (International Journal of Molecular Sciences, 2022).
